Assay results as given in article PMC4820838, “Quantifying the dynamics of the oligomeric transcription factor STAT3 by pair correlation of molecular brightness” (Nature Communications, 2016).

Biological target: the molecule itself
Test: pair correlation of molecular brightness (pCOMB); pair correlation of brightness fluctuations along a 64-pixel confocal line scan from cytoplasm to nucleus of live HeLa cells; amplitude calibrated against free GFP, YFP or mCherry; cells stimulated with 10 nM oncostatin M for 15 min

B1: STAT3-DB-GFP (natural protein, UniProt P40763 1-770, looked up)
chain: MAQWNQLQQLDTRYLEQLHQLYSDSFPMELRQFLAPWIESQDWAYAASKESHATLVFHNLLGEIDQQYSRFLQESNVLYQHNLRRIKQFLQSRYLEKPMEIARIVARCLWEESRLLQTAATAAQQGGQANHPTAAVVTEKQQMLEQHLQDVRKRVQDLEQKMKVVENLQDDFDFNYKTLKSQGDMQDLNGNNQSVTRQKMQQLEQMLTALDQMRRSIVSELAGLLSAMEYVQKTLTDEELADWKRRQQIACIGGPPNICLDRLENWITSLAESQLQTRQQIKKLEELQQKVSYKGDPIVQHRPMLEERIVELFRNLMKSAFVVERQPCMPMHPDRPLVIKTGVQFTTKVRLLVKFPELNYQLKIKVCIDKDSGDVAALRGSRKFNILGTNTKVMNMEESNNGSLSAEFKHLTLREQRCGNGGRANCDASLIVTAALHLITFETEVYHQGLKIDLETHSLPVVVISNICQMPNAWASILWYNMLTNNPKNVNFFTKPPIGTWDQVAEVLSWQFSSTTKRGLSIEQLTTLAEKLLGPGVNYSGCQITWAKFCKENMAGKGFSFWVWLDNIIDLVKKYILALWNEGYIMGFISKERERAILSTKPPGTFLLRFSESSKEGGVTFTWVEKDISGKTQIQSVEPYTKQQLNNMSFAEIIMGYKIMDATNILVSPLVYLYPDIPKEEAFGKYCRPESQEHPEADPGSAAPYLKTKFICVTPTTCSNTIDLPMSPRTLDSLMQFGNNGEGAEPSAGGQFESLTFDMELTSECATSPM
notes: cloned by Ivan Ng in the laboratory of Marie Bogoyevitch and David Jans; source: HeLa cells, transiently transfected, in live cells
  stoichiometry N: 2
